Data taken from article PMC4434903.

Experiments:
full length TOP1-His = full length TOP1-His (UniProt Q94AM1); test: SEC; Superdex 200 gel filtration of cobalt-column purified His-tagged protein, no DTT; apparent MW by interpolation with conalbumin and aldolase; peak areas at A280
[1] = biological target: T1, TOP2 fused to the N-terminal or the C-terminal half of Renilla luciferase, Q949P2; test: split reporter (BiFC, NanoBiT); split Renilla luciferase complementation in Arabidopsis protoplasts co-transformed with NLuc and CLuc fusions; luminescence read 12-16 h after transformation; with or without 100 or 200 uM SA (3 h); details: remark: other sources report otherwise
T1 chain: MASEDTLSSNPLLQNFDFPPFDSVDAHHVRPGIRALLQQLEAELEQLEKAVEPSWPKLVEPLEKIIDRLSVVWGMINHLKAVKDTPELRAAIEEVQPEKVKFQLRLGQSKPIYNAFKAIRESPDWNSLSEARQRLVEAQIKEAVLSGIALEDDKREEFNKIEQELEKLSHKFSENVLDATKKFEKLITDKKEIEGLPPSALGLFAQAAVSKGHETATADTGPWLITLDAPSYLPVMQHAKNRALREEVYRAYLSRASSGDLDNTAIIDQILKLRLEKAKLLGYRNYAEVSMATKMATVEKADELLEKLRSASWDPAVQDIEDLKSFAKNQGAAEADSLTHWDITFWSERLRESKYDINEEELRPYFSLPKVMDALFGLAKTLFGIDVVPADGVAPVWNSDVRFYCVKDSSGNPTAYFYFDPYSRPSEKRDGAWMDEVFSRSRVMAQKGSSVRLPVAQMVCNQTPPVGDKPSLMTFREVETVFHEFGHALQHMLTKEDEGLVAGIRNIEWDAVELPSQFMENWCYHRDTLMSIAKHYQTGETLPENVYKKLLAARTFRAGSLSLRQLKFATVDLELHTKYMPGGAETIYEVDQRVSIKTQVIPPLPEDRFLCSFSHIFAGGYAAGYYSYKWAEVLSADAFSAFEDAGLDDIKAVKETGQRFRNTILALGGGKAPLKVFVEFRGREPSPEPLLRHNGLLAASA

[2] = biological target: T2, full length TOP2-His, Q949P2; test: SEC; Superdex 200 gel filtration of cobalt-column purified His-tagged protein, no DTT; apparent MW by interpolation with conalbumin and aldolase; peak areas at A280; details: remark: other sources report otherwise
T2 chain: T1 chain

For “full length TOP1-His (from UniProt Q94AM1 83-791) (enzyme)”, the stoichiometry N (full length TOP1-His) was 2.

B1: TOP2 fused to the N-terminal or the C-terminal half of Renilla luciferase, Q949P2 1-701 (enzyme)
chain: T1 chain
B1 was tested, and the fold luminescence intensity over TOP1-TOP1 or TOP1-TOP2 [1] was 3.4 fold.

B2: full length TOP2-His, Q949P2 1-701 (enzyme)
chain: T1 chain
B2 was tested, and the stoichiometry N [2] was 2.
